Test [1] has as its target T1, human B7H4 (human, UniProt Q7Z7D3 25-282).
T1 construct: whole, on cells; also called B7H4 on tumor cell SK-BR-3
T1 sequence (looked up): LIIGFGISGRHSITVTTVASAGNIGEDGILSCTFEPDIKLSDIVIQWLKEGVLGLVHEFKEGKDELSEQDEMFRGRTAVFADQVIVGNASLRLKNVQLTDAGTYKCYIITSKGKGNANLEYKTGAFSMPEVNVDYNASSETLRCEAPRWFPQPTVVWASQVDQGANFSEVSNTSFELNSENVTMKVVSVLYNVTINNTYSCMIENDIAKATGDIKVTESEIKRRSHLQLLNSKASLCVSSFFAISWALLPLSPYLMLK
Put plainly: flow cytometry on SK-BR-3 cells expressing human B7H4. The protocol:
This Example investigates the ability of the bispecific antibody binding tumor cell SK-BR-3 (ATCC, HTB-30) expressing human B7H4. Specifically, collected cell SK-BR-3 suspension, adjusted the cell density to 1×10⁶/ml, and inoculated them at 100 μl/well in a 96 well V-bottom plate (Corning, #3894); subsequently, the antibody to be tested with a concentration 2-fold of final concentration obtained by 3-fold gradient dilution was added at volume of 100 μl/well. Cells were incubated at 4° C. in the dark for 2 hours. Afterwards, the cells were rinsed twice with 100 μl/well of pre-chilled PBS, centrifuged at 500 g, 4° C. for 5 minutes. The supernatant was discarded. Then added 100 μl/well of secondary antibody Alexa Fluor 488 AffiniPure Goat Anti-Human IgG, Fcγ fragment specific (Jackson ImmunoResearch, #109-545-098), and incubated the cells from light at 4° C. in the dark for 1 hour. Then the cells were rinsed twice with 100 μl/well of pre-chilled PBS, centrifuged at 500 g, for 5 minutes. The supernatant was discarded. Finally, the cells were resuspended with 200 μL/well of pre-chilled PBS. The fluorescent luminescence signal value were read by flow cytometry (BD FACS CANTOII or ACEA NovoCyte), and the resulted data were processed and analyzed by software FlowJo v10 (FlowJo, LLC). […]
A general note: Flow cytometry measures light scatter and fluorescence of single cells or particles in a stream.

The target in test [2] is T2, human ROR1 (human, UniProt Q01973 30-937).
T2 construct: whole, on cells; also called ROR1 on tumor cell Panc-1
Put plainly: flow cytometry on Panc-1 cells expressing human ROR1. The protocol: This Example investigates the ability of the bispecific antibody binding tumor cell Panc-1(ATCC, CRL-1469) expressing human ROR1. Specifically, collected cell Panc-1 suspension, adjusted the cell density to 1×10⁶/ml, and inoculated them at 100 μl/well in a 96 well V-bottom plate (Corning, #3894); subsequently, the antibody to be tested with a concentration 2-fold of final concentration obtained by 3-fold gradient dilution was added at volume of 100 μl/well. Cells were incubated at 4° C. in the dark for 2 hours. Afterwards, the cells were rinsed twice with 100 μl/well of pre-chilled PBS, centrifuged at 500 g, 4° C. for 5 minutes. The supernatant was discarded. Then added 100 μl/well of fluorescent secondary antibody Alexa Fluor 488 AffiniPure Goat Anti-Human IgG, Fcγ fragment specific (Jackson ImmunoResearch, #109-545-098), and incubated the cells from light at 4° C. in the dark for 1 hour. Then the cells were rinsed twice with 100 μl/well of pre-chilled PBS, centrifuged at 500 g, for 5 minutes. The supernatant was discarded. Finally, the cells were resuspended with 200 μL/well of pre-chilled PBS. The fluorescent luminescence signal value were read by flow cytometry (BD FACS CANTOII or ACEA NovoCyte), and the resulted data were processed and analyzed by software FlowJo v10 (FlowJo, LLC). […]

Test [3] has as its target T3, human CD3 (human, UniProt P07766 23-207; P09693 23-182; P04234 22-171; P20963 22-164).
T3 construct: whole, on cells; SP34 is described as an anti-human CD3e antibody; also called human TCR/CD3 complex; CD3 on human pan-T cells
Put plainly: flow cytometry on human pan-T cells.

Test [4] concerns the target T3, human CD3. Nature of the test: flow cytometry on recombinant CHOK1 cells overexpressing human CD3. The source says:
The flow cytometryFACS was used to analyse the binding of the CD3 antibody to CD3-expressing cells, where the CD3-expressing cells could be: CHOK1 cells overexpressing human CD3 or HEK 293 cells (plasmids encoding the ORF of γ, δ, ε, and ζ chains of human-derived CD3 and plasmids encoding the ORF of α and β chains of human TCR were co-transfected with host cells CHOK1 (ATCC, CCL-61) or HEK293 (ATCC, CRL-1573) to construct stable cell lines expressing the structure of the human TCR/CD3 complex); CHOK1 or HEK293 cells overexpressing cynomolgus monkey CD3; human pan-T cells (isolated with the human pan-T cell isolation kit (Miltenyi, #130-096-535) from PBMC); cynomolgus monkey pan-T cells. Specifically, the collected cells were washed twice with PBS containing 2% FBS (FACS buffer), and resuspended with FACS buffer, divided into 96 well plates with 1×10⁵ cells per well, centrifuged at 500 g for 5 minutes. The supernatant was discarded, and 100 μl of pre-gradient diluted CD3 antibody was added, then incubating for 1 hour at room temperature and washing twice with FACS buffer. […] The fluorescent luminescence signal value were read by flow cytometry (BD FACS CANTOII or ACEA NovoCyte), and the resulted data were processed and analyzed by software FlowJo v10 (FlowJo, LLC). […]

T3 sequence (P07766 23-207, chain 1 of 4): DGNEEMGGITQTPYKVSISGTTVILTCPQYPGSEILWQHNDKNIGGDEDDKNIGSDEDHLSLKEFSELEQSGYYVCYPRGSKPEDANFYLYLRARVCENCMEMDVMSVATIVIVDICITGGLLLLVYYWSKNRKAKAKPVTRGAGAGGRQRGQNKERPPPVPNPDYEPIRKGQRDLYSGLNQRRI
T3 sequence (P09693 23-182, chain 2 of 4): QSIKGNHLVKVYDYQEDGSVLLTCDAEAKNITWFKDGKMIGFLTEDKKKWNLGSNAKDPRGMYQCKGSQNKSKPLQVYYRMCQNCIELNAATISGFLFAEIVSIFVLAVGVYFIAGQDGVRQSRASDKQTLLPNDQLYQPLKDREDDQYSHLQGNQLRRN
T3 sequence (P04234 22-171, chain 3 of 4): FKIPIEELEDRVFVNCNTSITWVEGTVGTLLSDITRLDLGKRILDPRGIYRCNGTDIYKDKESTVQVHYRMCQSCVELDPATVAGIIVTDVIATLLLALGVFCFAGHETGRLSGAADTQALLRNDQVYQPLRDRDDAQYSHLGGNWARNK
T3 sequence (P20963 22-164, chain 4 of 4): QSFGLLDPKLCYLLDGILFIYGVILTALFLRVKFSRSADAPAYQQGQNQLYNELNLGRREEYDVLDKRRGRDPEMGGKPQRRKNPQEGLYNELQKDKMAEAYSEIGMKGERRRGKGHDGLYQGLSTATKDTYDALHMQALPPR
T2 sequence (Q01973 30-937): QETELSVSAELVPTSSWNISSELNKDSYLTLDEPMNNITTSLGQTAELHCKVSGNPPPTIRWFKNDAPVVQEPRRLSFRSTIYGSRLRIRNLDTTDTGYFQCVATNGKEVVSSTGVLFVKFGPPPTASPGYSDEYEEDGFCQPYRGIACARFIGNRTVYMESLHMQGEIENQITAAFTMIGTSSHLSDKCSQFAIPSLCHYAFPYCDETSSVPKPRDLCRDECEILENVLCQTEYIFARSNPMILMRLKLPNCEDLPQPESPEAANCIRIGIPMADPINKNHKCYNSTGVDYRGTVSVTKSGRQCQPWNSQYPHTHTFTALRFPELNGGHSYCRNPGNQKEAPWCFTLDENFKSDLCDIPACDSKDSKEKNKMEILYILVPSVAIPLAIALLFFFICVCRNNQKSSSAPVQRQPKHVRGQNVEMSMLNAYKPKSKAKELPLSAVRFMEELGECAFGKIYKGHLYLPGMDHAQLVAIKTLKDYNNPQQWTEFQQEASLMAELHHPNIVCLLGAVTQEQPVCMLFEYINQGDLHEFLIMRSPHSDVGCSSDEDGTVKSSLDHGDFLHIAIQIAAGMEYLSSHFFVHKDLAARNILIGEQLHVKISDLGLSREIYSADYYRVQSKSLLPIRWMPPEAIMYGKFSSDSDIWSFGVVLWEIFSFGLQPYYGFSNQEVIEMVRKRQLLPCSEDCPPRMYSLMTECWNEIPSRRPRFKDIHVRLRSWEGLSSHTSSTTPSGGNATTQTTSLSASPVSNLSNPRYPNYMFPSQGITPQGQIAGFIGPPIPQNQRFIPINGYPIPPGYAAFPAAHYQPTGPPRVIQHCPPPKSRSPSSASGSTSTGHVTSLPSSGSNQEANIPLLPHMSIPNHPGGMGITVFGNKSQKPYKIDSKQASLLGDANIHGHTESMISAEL

B1: B7H4 antibody PR000014 (antibody, V domains shown)
VH: EVQLVQSGAEVKKPGASVKVSCKASGYTFTSYWIGWVRQAPGQGLEWIGDIYPGGGYTNYNEKFKGRVTITRDTSTSTAYLELSSLRSEDTAVYYCARLAGSSYRGAMDSWGQGTLVTVSS
VL: DIQMTQSPSSLSASVGDRVTITCKASQGFNKYVAWYQQKPGKAPKLLIYYTSTLQPGVPSRFSGSGSGRDYTLTISSLQPEDFATYYCLQYGDLLYAFGQGTKVEIKR
notes: variable region derived from WO2016040724; also called recombinant IgG antibody PR000014
On to B1, for which the binding result in test [1] was “binds”.

B2: ROR1 antibody PR000374 (antibody, human IgG1, kappa, V domains shown)
VH: EVQLVESGGGLVQPGRSLRLSCTASGSDINDYPITWVRQAPGQGLEWIGFINSGGSTWYASWVKGRFTISRDDSKSIAYLQMNSLKTEDTAVYYCARGYSTYYRDFNIWGQGTLVTVSS
VL: DIQMTQSPSSLSASVGDRVTINCQASQSIDSNLAWFQQKPGQPPKLLIYRASNLASGVPDRFSGSGSGTDFTLTISSLEAEDVATYYCLGGVGAVSYRTSFGGGTKVEIKR
notes: variable region derived from WO2016094873; also called recombinant IgG antibody PR000374
As to B2, the binding result in test [2] is given as “binds”.

B3: bispecific antibody PR002883 targeting B7H4xCD3 (bispecific antibody)
heavy 1: QAVVTQEPSLTVSPGGTVTLTCRSSTGAVTTSNYANWVQQKPGQAPRGLIGGTNKRAPWTPARFSGSLLGDKAALTLLGAQPEDEAEYFCALWYSNLWVFGGGTKLTVLGGGQSGQGGSGGGGSEVQLVESGGGLVQPGGSLKLSCAASGFTFNTYAMNWVRQASGKGLEWVGRIRSKYNNYATYYADSVKDRFTISRDDSKSTLYLQMNSLKTEDTAVYYCVRHGNFGNSYVSWFAYWGQGTLVTVSSASEPKSSDKTHTCPPCPAPEAAGGPSVFLFPPKPKDTLMISRTPEVTCVVVDVSHEDPEVKFNWYVDGVEVHNAKTKPREEQYNSTYRVVSVLTVLHQDWLNGKEYKCKVSNKALGAPIEKTISKAKGQPREPQVYTLPPCREEMTKNQVSLWCLVKGFYPSDIAVEWESNGQPENNYKTTPPVLDSDGSFFLYSKLTVDKSRWQQGNVFSCSVMHEALHNHYTQKSLSLSPGK
heavy 2: EVQLVQSGAEVKKPGASVKVSCKASGYTFTSYWIGWVRQAPGQGLEWIGDIYPGGGYTNYNEKFKGRVTITRDTSTSTAYLELSSLRSEDTAVYYCARLAGSSYRGAMDSWGQGTLVTVSSASTKGPSVFPLAPSSKSTSGGTAALGCLVKDYFPEPVTVSWNSGALTSGVHTFPAVLQSSGLYSLSSVVTVPSSSLGTQTYICNVNHKPSNTKVDKKVEPKSCDKTHTCPPCPAPEAAGGPSVFLFPPKPKDTLMISRTPEVTCVVVDVSHEDPEVKFNWYVDGVEVHNAKTKPREEQYNSTYRVVSVLTVLHQDWLNGKEYKCKVSNKALGAPIEKTISKAKGQPREPQVCTLPPSREEMTKNQVSLSCAVKGFYPSDIAVEWESNGQPENNYKTTPPVLDSDGSFFLVSKLTVDKSRWQQGNVFSCSVMHEALHNHYTQKSLSLSPGK
light: DIQMTQSPSSLSASVGDRVTITCKASQGFNKYVAWYQQKPGKAPKLLIYYTSTLQPGVPSRFSGSGSGRDYTLTISSLQPEDFATYYCLQYGDLLYAFGQGTKVEIKRTVAAPSVFIFPPSDEQLKSGTASVVCLLNNFYPREAKVQWKVDNALQSGNSQESVTEQDSKDSTYSLSSTLTLSKADYEKHKVYACEVTHQGLSSPVTKSFNRGEC
notes: asymmetric three-chain structure, LALAPG; SDS-PAGE purity 70% after one-step purification; also called B7H4×CD3 bispecific antibody
For the molecule B3, the binding result in test [3] is “binds”.

B4: bispecific antibody PR002885 targeting ROR1xCD3 (bispecific antibody, human IgG1, kappa, L234A L235A)
heavy 1: B3 heavy 1
heavy 2: EVQLVESGGGLVQPGRSLRLSCTASGSDINDYPITWVRQAPGQGLEWIGFINSGGSTWYASWVKGRFTISRDDSKSIAYLQMNSLKTEDTAVYYCARGYSTYYRDFNIWGQGTLVTVSSASTKGPSVFPLAPSSKSTSGGTAALGCLVKDYFPEPVTVSWNSGALTSGVHTFPAVLQSSGLYSLSSVVTVPSSSLGTQTYICNVNHKPSNTKVDKKVEPKSCDKTHTCPPCPAPEAAGGPSVFLFPPKPKDTLMISRTPEVTCVVVDVSHEDPEVKFNWYVDGVEVHNAKTKPREEQYNSTYRVVSVLTVLHQDWLNGKEYKCKVSNKALGAPIEKTISKAKGQPREPQVCTLPPSREEMTKNQVSLSCAVKGFYPSDIAVEWESNGQPENNYKTTPPVLDSDGSFFLVSKLTVDKSRWQQGNVFSCSVMHEALHNHYTQKSLSLSPGK
light: DIQMTQSPSSLSASVGDRVTINCQASQSIDSNLAWFQQKPGQPPKLLIYRASNLASGVPDRFSGSGSGTDFTLTISSLEAEDVATYYCLGGVGAVSYRTSFGGGTKVEIKRTVAAPSVFIFPPSDEQLKSGTASVVCLLNNFYPREAKVQWKVDNALQSGNSQESVTEQDSKDSTYSLSSTLTLSKADYEKHKVYACEVTHQGLSSPVTKSFNRGEC
notes: asymmetric three-chain structure, LALAPG; SDS-PAGE purity 70% after one-step purification; also called ROR1×CD3 bispecific antibody
Consider B4, for which the binding result in test [3] was “binds”.

B5: SP34 murine-human chimeric recombinant antibody PR000260 (antibody, human IgG1, lambda, L234A L235A, V domains shown)
VH: EVQLVESGGGLVQPKGSLKLSCAASGFTFNTYAMNWVRQAPGKGLEWVARIRSKYNNYATYYADSVKDRFTISRDDSQSILYLQMNNLKTEDTAMYYCVRHGNFGNSYVSWFAYWGQGTLVTVSA
VL: QAVVTQESALTTSPGETVTLTCRSSTGAVTTSNYANWVQEKPDHLFTGLIGGTNKRAPGVPARFSGSLIGDKAALTITGAQTEDEAIYFCALWYSNLWVFGGGTKLTVLG
notes: IgG1 LALA, lambda; made in HEK293; also called SP34 chimeric antibody; PR000260(SP34)
In the case of B5, in test [4], the binding result is on record as “binds”.
